pIC50, pKd: −log10 of the molar value.
Key:
[1] = target: βAPP-C100 binding site on NGF-treated PC12 cells; assay: competition with 35S-βAPP-C100 for binding to NGF-treated PC12 cells
[2] = target: βAPP-C100 binding site on NGF-treated PC12 cells; assay: inhibition of 35S-βAPP-C100 binding to NGF-treated PC12 cells by unlabeled βAPP-C100
[3] = target: βAPP-C100 binding site on NGF-treated PC12 cells; assay: saturation binding of 35S-βAPP-C100 to NGF-treated PC12 cells, filtration, 4° C.

Substance | pIC50 [1] | times less potent than the native form [1] [times] | pIC50 [2] | pKd [3]
Phe687-βAPP-C100 (from UniProt P05067-4) (ligand) | < 7.85 | > 20 | – | –
flag-βAPP-C100 (from UniProt P05067-4) (ligand) | – | – | 8.77 | 9.09
